The results in this text go back to US20150175707A1.

In assay [1] the target is IgG1-005-E345R/E430G/S440K (human). Description: HP-SEC of an equimolar mixture, PBS pH 7.4; Fc:Fc hetero-oligomerization. Background: In gel filtration, larger molecules generally elute earlier.
The target in assay [2] is IgG1-005-E345R/E430G/Y436I/S440K (human). The assay is described as above.
The target of assay [3] is C1q from pooled human serum (human) (UniProt P02745). Briefly: C1q binding ELISA; antibody dilution series coated, 3% pooled human serum as C1q source, anti-C1q detection. For orientation: In an ELISA, binding on a coated surface is turned into a signal by an enzyme label.
In assay [4] the target is Protein A (ready-to-use protein A sensortips, Fortebio) (Staphylococcus aureus) (UniProt P38507). Briefly: Octet QK, protein A sensor tips, against an IgG standard curve; A280 concentration of the sample 2905 µg/ml. Background: In BLI a coated tip is dipped into the sample, and binding shifts an interference pattern.
Assay [5] addresses IgG1-005-E345R/E430G/S440Y (human). Briefly: dynamic light scattering, 2.86 mg/mL in PBS pH 7.4; Fc:Fc self-oligomerization.
Assay [6] deals with FcγRIIIa receptor, V158 (high affinity) variant, on Jurkat effector cells (UniProt P08637). Briefly: cell-based or functional assay.
Assay [7] deals with Protein A (ready-to-use protein A sensortips, Fortebio) (Staphylococcus aureus) (UniProt P38507). Briefly: ratio of the concentrations by A280 and by Octet protein A sensor tips.
Assay [8] has as its target IgG1-005-E345R/E430G/S440Y (human). Description: HP-SEC with multiple angle light scattering; Fc:Fc self-oligomerization.
Assay [9] has as its target Protein A (ready-to-use protein A sensortips, Fortebio) (Staphylococcus aureus) (UniProt P38507). Description: Octet QK, protein A sensor tips, against an IgG standard curve; A280 concentration of the sample 3818 µg/ml.

For “IgG1-005-E345R/E430G/K439E/S440Y (antibody)”, the % multimers (HP-SEC) in assay [1] amounted to 65%; in assay [2], 93%.
One may read the EC50 as the concentration giving half of the maximal effect. Higher therefore signals weaker potency. Substance HuMab 005 mutant E345R (antibody) showed an EC50 in [3] of 0.836 µg/mL.
On to IgG1-005-E345R/E430G/S440Y (antibody), for which the Octet-Protein A (apparent IgG concentration) in assay [4] worked out at 2050 µg/mL. Moreover, in [5], the apparent MW (DLS) came out at 876 kDa and the monomeric subunits per complex (DLS) (monomeric subunits) came out at 6.17. The substance further displayed an EC50 in assay [3] of 0.52 µg/mL. In assay [6], this substance showed an EC50 (ADCC reporter assay) of 0.036 µg/mL and a Maximal signal (ADCC reporter assay) of 394000 RLU. The A280/Protein A × 100 (%) in [7] was 0.71%. In addition, in assay [8], the apparent average MW of the multimeric peak (MALS) was determined as 772 kDa and the monomeric subunits per complex (MALS) (monomeric subunits) is 5.4.
“HuMab 005 (wild type IgG1-005), fully human IgG1,κ antibody against human CD38”: the EC50 in assay [3] amounted to 1.55 µg/mL. In addition, the Octet-Protein A (apparent IgG concentration) in assay [9] was determined as 3620 µg/mL. Moreover, in [6], the EC50 (ADCC reporter assay) was found to be 0.0095 µg/mL and the Maximal signal (ADCC reporter assay) stood at 335000 RLU. The A280/Protein A × 100 (%) in assay [7] was found to be 0.95%.
